This experiment addresses CD22 (UniProt P20273). In words: cell-based or functional assay.
UniProt P20273, sequence (P20273 20-847 limits assumed): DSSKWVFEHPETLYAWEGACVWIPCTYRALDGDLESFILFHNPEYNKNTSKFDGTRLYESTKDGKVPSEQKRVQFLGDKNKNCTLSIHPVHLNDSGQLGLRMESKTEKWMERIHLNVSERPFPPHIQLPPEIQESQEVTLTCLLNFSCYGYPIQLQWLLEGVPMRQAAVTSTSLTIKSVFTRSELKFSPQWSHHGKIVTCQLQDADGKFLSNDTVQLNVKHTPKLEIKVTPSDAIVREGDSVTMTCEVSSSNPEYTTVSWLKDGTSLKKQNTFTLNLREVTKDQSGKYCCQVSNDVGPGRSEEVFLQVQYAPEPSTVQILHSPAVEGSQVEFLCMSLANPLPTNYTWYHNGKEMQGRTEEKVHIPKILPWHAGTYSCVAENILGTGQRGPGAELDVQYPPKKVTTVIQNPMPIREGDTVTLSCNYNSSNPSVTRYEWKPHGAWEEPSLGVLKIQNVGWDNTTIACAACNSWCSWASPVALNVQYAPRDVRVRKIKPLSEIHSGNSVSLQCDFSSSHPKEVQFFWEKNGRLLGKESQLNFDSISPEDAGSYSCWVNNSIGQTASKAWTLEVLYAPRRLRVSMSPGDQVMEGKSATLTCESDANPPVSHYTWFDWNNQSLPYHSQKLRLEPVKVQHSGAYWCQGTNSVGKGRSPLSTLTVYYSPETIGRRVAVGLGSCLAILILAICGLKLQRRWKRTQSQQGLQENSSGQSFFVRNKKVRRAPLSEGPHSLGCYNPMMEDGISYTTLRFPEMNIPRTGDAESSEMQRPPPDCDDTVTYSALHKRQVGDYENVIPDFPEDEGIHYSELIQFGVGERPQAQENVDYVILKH

For the substance HA22-LR, the cytotoxicity IC50 (ng/ml) on CA46 cells was found to be 0.11 ng/mL, the cytotoxicity IC50 (ng/ml) on Daudi cells was 0.18 ng/mL and the cytotoxicity IC50 (ng/ml) on Raji cells was 0.41 ng/mL.
